The record followed here is patent publication US20130288274A1 (BIO RAD LABORATORIES, published 2013).

This data set deals with the molecule itself. As to the kind of experiment: SDS-PAGE and size-exclusion chromatography; self-association. As for the experimental part:
The affinity purified protein was analyzed by SDS-PAGE gel electrophoresis (FIG. 1). The D2-hexamers that were further purified on the size-exclusion column as described above were analyzed by SDS-PAGE (FIG. 1). […] This aggregation of the hexamers is so strong that it is not dissociated under the denaturing conditions used in SDS-PAGE. Additionally, both hexamer proteins migrated at the position of about 45 kd in a size-exclusion chromatogram. Without being bound to a particular theory, the surprising tendency of the hexamers to aggregate to form a trimer of hexamers may contribute to the improved immunoreactivity of the D2 hexamer.

B1: classic D2 hexamer with His tag (His-tagged recombinant deamidated gliadin protein) (other)
chain: MRGSHHHHHHGSPEFQPEQPQQSFPEQERPFGGGGSQPEQPQQSFPEQERPFGGGGSQPEQPQQSFPEQERPFGGGGSQPEQPQQSFPEQERPFGGGGSQPEQPQQSFPEQERPFGGGGSQPEQPQQSFPEQERPF
notes: also called classic DGP; DGP hexamer
For B1, the binding result is recorded as “binds”.

B2: lysine-containing D2 hexamer with His tag (His-tagged Recombinant Deamidated Gliadin Peptide with a lysine substituted for a glutamic acid residue at position … (other)
chain: MRGSHHHHHHGSPKFQPEQPQQSFPEQERPFGGGGSQPEQPQQSFPEQERPFGGGGSQPEQPQQSFPEQERPFGGGGSQPEQPQQSFPEQERPFGGGGSQPEQPQQSFPEQERPFGGGGSQPEQPQQSFPEQERPF
notes: also called lysine-containing DGP; lysine-containing DGP hexamer
Turning to B2, the binding result was “binds”.
